T1: ECD of DAF-4 (Caenorhabditis elegans, UniProt P50488)
T1 construct: highly purified ECD of DAF-4 as type II receptor
T1 sequence (P50488 48-253 limits assumed): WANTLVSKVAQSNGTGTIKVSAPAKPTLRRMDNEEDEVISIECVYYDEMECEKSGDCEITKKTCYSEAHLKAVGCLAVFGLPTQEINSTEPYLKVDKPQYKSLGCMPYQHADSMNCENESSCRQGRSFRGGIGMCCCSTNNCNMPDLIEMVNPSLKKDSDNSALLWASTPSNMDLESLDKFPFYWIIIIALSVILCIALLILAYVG

T2: DAF-4 ECD (Caenorhabditis elegans, UniProt P50488)
T2 construct: highly purified ECD of DAF-4 as type II receptor
T2 sequence (P50488 48-253 limits assumed): T1 sequence (P50488 48-253 limits assumed)

B1: OP-1: osteogenic protein-1, a tissue morphogenic protein of the TGF-β superfamily; mature human OP-1 is SEQ ID No. 4 (protein, listed as Homo sapiens)
chain: CKKHELYVSFRDLGWQDWIIAPEGYAAYYCEGECAFPLNSYMNATNHAIVQTLVHFINPETVPKPCCAPTQLNAISVLYFDDSSNVILKKYRNMVVRACGCH

Legend:
ECD of DAF-4 = target: T1, ECD of DAF-4; experiment: Type II receptor-based rapid solid phase assay; format: binding; conditions: for inhibition of 125I-labeled OP-1 binding to the ECD of DAF-4: excess unlabeled competitor, FIG. 20
Procedure: iii. Type H Receptor-based rapid solid phase assay: OP-1 binding activity, and that of various synthetic peptides, may be determined by a rapid solid-phase assay using 125I-labeled OP-1 as ligand and highly purified ECD of DAF-4 as type II receptor. In a typical assay, ˜1 μg of ECD of DAF-4 receptor (R) is dissolved in 20 μl of 50 mM PBSA, pH 7.4 and immobilized on PVDF membranes (Immobilon-P) by using a slot-blot apparatus (VacuSlot-VS). A similarly immobilized polyclonal anti-OP-1 antibody (diluted Ab) has served as positive control, while bovine serum albumin (globulin free) and unrelated receptor ECD have served as negative controls in this assay. The receptor-containing membranes are incubated in 50 mM HEPES buffer, pH 7.4 containing 3% bovine serum albumin (BSA) for 14 h, in cold (4° C.), to block excess protein binding sites on the membrane. The blocking buffer is then replaced with 50 mM HEPES, pH 7.4 containing 0.5% BSA, 10 mM MgCl2 and 1 mM CaCl2, and the receptor-containing membranes are further incubated with ^125I-labeled OP-1 (˜400,000 cpm/ml) in the presence or absence of excess unlabeled OP-1 or test peptide for 18 h, with slow shaking at room temperature. Finally, the membranes are washed four times with 50 mM HEPES buffer, pH 7.4 containing 5 mM MgCl2 and 1 mM CaCl2, air dried and ^125I kept for autoradiography overnight.
Initial binding experiments were carried out to examine the role of the finger 2 region (Leu109-Arg129) of OP-1 in the interaction of OP-1 with the type II receptor. Incubation of DAF4 with radioiodinated OP-1 was done in the presence (a) and absence (b) of synthetic peptide (F2-3) corresponding to the indicated finger 2 region of OP-1. In parallel, immobilized receptor was incubated with radioiodinated OP-1 in the presence of unlabeled OP-1 which served as a positive control. […] These initial results thus identify that the finger 2 region (Leu109-Arg129) of OP-1 is likely a contact region in the interaction of OP-1 with the type II receptor.

ROS cell receptor = experiment: Type II receptor-based ligand blot, ROS cell receptor; format: binding, rat; conditions: FIG. 21
Procedure: (§1) iv. Type II receptor-based ligand-blot technique: A ligand blot method can be used to characterize OP-1 binding properties of highly purified DAF4 ECD and ROS cell receptor. Peptides are analyzed by this method to determine their ability to interact with type II receptor, based on their ability to inhibit ^125I-labeled OP-1 binding to the receptor. In a typical experiment, receptor-enriched ROS cell plasma membrane fraction or purified DAF-4 ECD is treated with SDS (final concentration 1.6%, w/v) in the presence of 17% glycerol on ice, as is known in the art, and subjected to SDS-PAGE under non-reducing conditions and without prior heating of the samples, according to the procedure of Laemmli. Receptor samples are electrophoressed at 35 mA and 4° C., in gradient (5-8% or 5-10%, w/v) acrylamide separating gels. Pre-stained markers of known MW, are used as standards. After SDS-PAGE, the resolved proteins from acrylamide gels are transblotted onto PVDF membranes (Immobilon-P transfer membranes) using an Pharmacia-LKB 2005 Transphor Unit, at constant current (0.2 A) and 4° C., for 16 h. Ligand blotting is carried out as follows. […]

DAF-4 ECD = target: T2, DAF-4 ECD; experiment: Type II receptor-based ligand blot, DAF-4 ECD; format: binding; conditions: FIG. 22
Procedure: as §1

| Molecule | binding to ECD of DAF-4 (ECD of DAF-4; FIG. 20 legend) | inhibition of 125I-labeled OP-1 binding to the ECD of DAF-4 (ECD of DAF-4) [%] | binding of 125I-labeled OP-1 to ROS cell receptor (ROS cell receptor) | binding of 125I-labeled OP-1 to DAF-4 ECD (DAF-4 ECD) |
| --- | --- | --- | --- | --- |
| F2-3: SEQ ID No. 19; 16 residues, finger 2 tip 11-residue loop with 5-residue C-terminal extension (CYFDDSSNVICKKYRS; listed as Homo sapiens) | binds to ECD of DAF-4 | 75 | – | – |
| B1 | – | 78 | specifically binds | OP-1 binding to two closely migrated receptor components |
